The results in this text go back to publication PMC2821923, “Visualizing Interactions along the Escherichia coli Twin-Arginine Translocation Pathway Using Protein Fragment Complementation” (PLoS ONE, 2010).

The target in data set [1] is ssDmsA-Y1 (DmsA signal peptide fused to the N-terminal YFP fragment) (E. coli). The data set can be described thus: split reporter (BiFC, NanoBiT); split YFP (Y1 1-154, Y2 155-238) BiFC in living E. coli TG1 cells (wt; also ΔtatE, ΔtatB, ΔtatC, ΔtatAE, ΔtatABCE); 1 mM IPTG, 8 h at room temperature; median cell fluorescence by flow cytometry, normalised to ssDmsA-Y1/DmsD-Y2, and fluorescence microscopy; substrate or signal peptide with ….

Data set [2] concerns the target DmsA-Y1 (entire DmsA enzyme fused to the N-terminal YFP fragment) (E. coli) (UniProt P18775). The description is as above.
For data set [3], the target named is TatB fused to a YFP fragment (TatB-Y1; TatB-Y2) (E. coli) (UniProt P69425). The data set can be described thus: split reporter (BiFC, NanoBiT); split YFP BiFC in living TG1 ΔtatABCE cells (TatA also in ΔtatAE, TatB/TatC also in ΔtatB and ΔtatC); median fluorescence by flow cytometry against unfused Y1 or Y2 controls, fluorescence microscopy.
The target of data set [4] is TatC fused to a YFP fragment (TatC-Y1; TatC-Y2) (E. coli) (UniProt P69423). Described as above.
The target of data set [5] is TatC(E103R) fused to a YFP fragment (E103R-Y1; E103R-Y2) (E. coli) (UniProt P69423). Described as above.
Data set [6] concerns the target TatC(P48A) fused to a YFP fragment (P48A-Y1; P48A-Y2) (E. coli) (UniProt P69423). Described as above.
Data set [7] deals with the molecule itself. The description is as above.

Consider “DmsD fused to a YFP fragment (DmsD-Y2; DmsD-Y1) (from UniProt P69853 1-204) (natural protein)”, for which, in data set [1], the BiFC fluorescence, fold over background (unfused Y1 with DmsD-Y2) worked out at 5 fold and the median fluorescence (M) was 2250. Moreover, in data set [1] (scale: relative), the ssDmsA binding activity is 1. The BiFC signal relative to the ssDmsA-Y1/DmsD-Y2 pair in data set [2] was found to be 50%. The molecule also registered a DmsA binding activity in data set [2] (scale: relative) of 0.62.
With ssDmsA(KK)-Y1 (domain or fragment), the BiFC signal, fold above background in data set [3] is 5.4 fold; in data set [4] it was 10.7 fold.
Consider “ssDmsA-Y1 (DmsA signal peptide fused to the N-terminal YFP fragment) (domain or fragment)”, for which the figures for the BiFC signal, fold above background in data set [3] and in data set [4] were 3.5 fold and 7 fold, respectively. In addition, the BiFC signal, fold less than with wt TatC in data set [5] and in data set [6] was 2 fold in each case.

B1: TatA(F39A) fused to a YFP fragment (F39A-Y1; F39A-Y2) (natural protein, E. coli, UniProt P69428 1-89, looked up)
chain: MGGISIWQLLIIAVIVVLLFGTKKLGSIGSDLGASIKGAKKAMSDDEPKQDKTSQDADFTAKTIADKQADTNQEQAKTEDAKRHDKEQV
notes: TatA, E. coli, full length, with F39A in the predicted amphipathic region; also called TatA(F39A)-Y1; TatA(F39)-Y2; source: E. coli TG1 ΔtatABCE (also TG1 ΔtatAE), co-expressed from plasmids pF39A-Y1 and pF39A-Y2, in living cells
Regarding B1, the “BiFC signal relative to the wt TatA homo-oligomers” value in data set [7] was around 2 fold.
